Legend:
human IL-1α (human) [1] = target: human IL-1α (human) (UniProt P01583); assay: cell-based or functional assay
human IL-1β (human) [2] = target: human IL-1β (human) (UniProt P01584); assay: cell-based or functional assay
human IL-1α (human) [3] = target: human IL-1α (human) (UniProt P01583); assay: SPR, Biacore T200; binder captured by anti-human Fc, cytokine injected; 1:1 Langmuir
human IL-1β (human) [4] = target: human IL-1β (human) (UniProt P01584); assay: as above
mouse IL-1α (mouse) = mouse IL-1α (mouse) (UniProt P01582); assay: as above
mouse IL-1β (mouse) = mouse IL-1β (mouse) (UniProt P10749); assay: as above
[5] = target: rhesus monkey (Rhesus macaque) IL-1β (rhesus monkey (Rhesus macaque)) (UniProt P48090); assay: as above
human FcγRI (human) [6] = target: human FcγRI (human) (UniProt P12314); assay: BLI, Octet Red96e; His-tagged FcγRI on anti-Penta-HIS sensor, 80-1,280 nM analyte; 1:1 model
human IL-1β (human) [7] = target: human IL-1β (human) (UniProt P01584); assay: ELISA, human IL-1β coated at 30 ng/well, detection with anti-human IgG Fc-HRP, OD 450 nm
human FcγRIIIA (human) [8] = target: human FcγRIIIA (human) (UniProt P08637); assay: BLI, Octet Red96e; His-tagged FcγRIIIA on anti-Penta-HIS sensor, 80-1,280 nM analyte; 1:1 model
human FcγRIIIA (human) [9] = target: human FcγRIIIA (human) (UniProt P08637); assay: BLI (Octet Red96e), His-tagged human FcγRIIIA on Anti-Penta-HIS biosensor, analyte 80-1280 nM, 1:1 model [B]
[10] = target: Human FcRn (Homo sapiens) (UniProt P55899); assay: BLI (Octet Red96e), His-tagged human FcRn on Anti-Penta-HIS biosensor, pH 6.0, analyte 31.25-1000 nM, 1:1 model [A]
human FcγRI (human) [11] = target: human FcγRI (human) (UniProt P12314); assay: BLI (Octet Red96e), His-tagged human FcγRI on Anti-Penta-HIS biosensor, analyte 10-160 nM as printed on the sheet, 1:1 model [B]

Human FcRn (Homo sapiens), sequence (P55899 24-297 limits assumed, chain 1 of 2): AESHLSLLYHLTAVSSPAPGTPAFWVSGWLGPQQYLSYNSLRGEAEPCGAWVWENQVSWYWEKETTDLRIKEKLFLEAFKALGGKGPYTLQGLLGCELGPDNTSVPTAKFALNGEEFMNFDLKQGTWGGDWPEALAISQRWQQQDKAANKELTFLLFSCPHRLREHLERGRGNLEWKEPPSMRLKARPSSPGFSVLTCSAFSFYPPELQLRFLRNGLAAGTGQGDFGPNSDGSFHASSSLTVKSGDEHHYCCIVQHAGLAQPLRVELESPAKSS
Human FcRn (Homo sapiens), sequence (chain, as listed by the source limits assumed, chain 2 of 2): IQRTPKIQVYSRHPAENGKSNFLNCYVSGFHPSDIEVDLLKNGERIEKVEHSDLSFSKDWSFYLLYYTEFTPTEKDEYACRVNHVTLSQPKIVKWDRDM
mouse IL-1β (mouse), sequence (P10749 118-269 limits assumed): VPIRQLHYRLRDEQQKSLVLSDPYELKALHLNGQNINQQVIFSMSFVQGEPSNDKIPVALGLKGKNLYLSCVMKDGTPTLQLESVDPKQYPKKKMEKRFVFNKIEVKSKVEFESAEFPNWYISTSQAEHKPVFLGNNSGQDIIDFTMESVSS
human FcγRIIIA (human), sequence (P08637 17-208 limits assumed): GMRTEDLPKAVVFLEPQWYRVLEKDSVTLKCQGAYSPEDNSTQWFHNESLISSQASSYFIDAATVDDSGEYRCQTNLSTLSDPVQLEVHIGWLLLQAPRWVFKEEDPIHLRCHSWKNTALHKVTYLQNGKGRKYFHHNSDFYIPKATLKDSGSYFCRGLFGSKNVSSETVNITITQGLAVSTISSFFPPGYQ
human FcγRI (human), sequence (P12314 16-288 limits assumed): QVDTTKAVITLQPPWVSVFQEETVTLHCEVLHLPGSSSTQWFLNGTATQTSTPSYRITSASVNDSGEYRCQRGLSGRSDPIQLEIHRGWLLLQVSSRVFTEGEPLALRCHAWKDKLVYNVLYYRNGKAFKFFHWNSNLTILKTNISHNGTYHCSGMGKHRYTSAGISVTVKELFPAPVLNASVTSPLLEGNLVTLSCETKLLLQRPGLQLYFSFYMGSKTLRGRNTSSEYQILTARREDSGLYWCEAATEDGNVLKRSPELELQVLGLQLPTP
human IL-1α (human), sequence (P01583 113-271 limits assumed): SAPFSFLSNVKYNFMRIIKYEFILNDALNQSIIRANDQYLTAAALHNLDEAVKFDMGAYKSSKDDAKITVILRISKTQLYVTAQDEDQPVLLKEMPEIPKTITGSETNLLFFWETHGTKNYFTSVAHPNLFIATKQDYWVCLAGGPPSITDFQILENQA
mouse IL-1α (mouse), sequence (P01582 115-270 limits assumed): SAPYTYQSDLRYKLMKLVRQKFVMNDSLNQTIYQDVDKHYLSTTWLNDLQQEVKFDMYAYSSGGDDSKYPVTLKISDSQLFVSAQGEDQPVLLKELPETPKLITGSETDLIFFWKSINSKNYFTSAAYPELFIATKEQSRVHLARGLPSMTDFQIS

Substance rilonacept (Fc fusion) has an SEAP secretion, IL-1β reporter HEK 293 cell line, 10 ng/ml human IL-1α (human IL-1α (human) [1]) of 0.308 nM, an EC50 of in vivo neutralisation: inhibition of the rise of serum IL-6 in C57BL/6 mice given human IL-1β (300 ng/kg i.p.) 24 h after s.c. rilonacept (human IL-1β (human) [2]) of 10.5 µg/kg and an IL-1β-mediated IL-6 secretion, A549 cell line, 1 ng/ml IL-1β (human IL-1β (human) [2]) of 37 pM. For the same substance, the SEAP secretion, IL-1β reporter HEK 293 cell line, 10 ng/ml human IL-1β (human IL-1β (human) [2]) was 0.243 nM, the inhibition of SEAP secretion at 4 nM, IL-1β reporter HEK 293 cell line (human IL-1β (human) [2]) was 99.5% and the inhibitory activity (%) on the IL-1β-induced rise of serum IL-6 in mice, at a 3-fold molar excess over the administered IL-1β (human IL-1β (human) [2]) was 50%. It also gave a Kd (human IL-1α (human) [3]) of 0.00491 nM, a koff (human IL-1α (human) [3]) of 4.5e-05 s⁻¹ and a kon (human IL-1α (human) [3]) of 9.18e+06 M⁻¹ s⁻¹. The Kd (human IL-1β (human) [4]) was 0.00256 nM, the koff (human IL-1β (human) [4]) was 8.67e-05 s⁻¹ and the kon (human IL-1β (human) [4]) was 3.39e+07 M⁻¹ s⁻¹. For the same substance, the Kd (mouse IL-1α (mouse)) was 0.0383 nM, the koff (mouse IL-1α (mouse)) was 0.000178 s⁻¹ and the kon (mouse IL-1α (mouse)) was 4.66e+06 M⁻¹ s⁻¹. For the same substance, the Kd (mouse IL-1β (mouse)) was 0.369 nM, the koff (mouse IL-1β (mouse)) was 0.000328 s⁻¹ and the kon (mouse IL-1β (mouse)) was 890000 M⁻¹ s⁻¹. The Kd [5] was 0.00178 nM, the koff [5] was 2.43e-05 s⁻¹ and the kon [5] was 1.36e+07 M⁻¹ s⁻¹. The Kd (human FcγRI (human) [6]) was 45.8 nM, the EC50 (human IL-1β (human) [7]) was 0.0947 nM and the Kd (human FcγRIIIA (human) [8]) was 913 nM. For the same substance, the koff (human FcγRIIIA (human) [9]) was 0.0538 s⁻¹, the kon (human FcγRIIIA (human) [9]) was 59000 M⁻¹ s⁻¹ and the Kd [10] was 453 nM. For the same substance, the koff [10] was 0.0489 s⁻¹, the kon [10] was 108000 M⁻¹ s⁻¹ and the koff (human FcγRI (human) [11]) was 0.00209 s⁻¹. For the same substance, the kon (human FcγRI (human) [11]) was 45600 M⁻¹ s⁻¹.
